B1: highly purified BuChE from human serum (enzyme)
chain: EDDIIIATKNGKVRGMNLTVFGGTVTAFLGIPYAQPPLGRLRFKKPQSLTKWSDIWNATKYANSCCQNIDQSFPGFHGSEMWNPNTDLSEDCLYLNVWIPAPKPKNATVLIWIYGGGFQTGTSSLHVYDGKFLARVERVIVVSMNYRVGALGFLALPGNPEAPGNMGLFDQQLALQWVQKNIAAFGGNPKSVTLFGESAGAASVSLHLLSPGSHSLFTRAILQSGSFNAPWAVTSLYEARNRTLNLAKLTGCSRENETEIIKCLRNKDPQEILLNEAFVVPYGTPLSVNFGPTVDGDFLTDMPDILLELGQFKKTQILVGVNKDEGTAFLVYGAPGFSKDNNSIITRKEFQEGLKIFFPGVSEFGKESILFHYTDWVDDQRPENYREALGDVVGDYNFICPALEFTKKFSEWGNNAFFYYFEHRSSKLPWPEWMGVMHGYEIEFVFGLPLERRDNYTKAEEILSRSIVKRWANFAKYGNPNETQNNSTSWPVFKSTEQKYLTLNTESTRIMTKLRAQQCRFWTSFFPKVLEMTGNIDEAEWEWKAGFHRWNNYMMDWKNQFNDYTSKKESCVGL

Key:
[1] = molecular target: CSF BuChE (human (endogenous in CSF)) (UniProt P06276); assay: co-sedimentation
[2] = molecular target: the molecule itself; assay: co-sedimentation

| Molecule | stoichiometry N [1] | stoichiometry N [2] |
| --- | --- | --- |
| CSF BuChE (from UniProt P06276 29-602) (enzyme) | 4 | – |
| B1 | – | 4 |

Reference: paper PMC4949388 (Brain, 2015)
